Experimental data published in patent US7709240B2, “AMP deaminase originating streptomyces and utilization thereof” (Amano Enzyme Inc., priority 2004, dated 2010).

Key:
[1] = Feasibility test 2: nuclease and deaminase treatment of yeast lysate carried out simultaneously; conditions: simultaneously with nuclease, 70° C., pH5, 3 hours or 5 hours
Experimental: In test 2, treatment with nuclease and treatment with deaminase were carried out simultaneously. Specifically, the treatment was carried out by the following procedure and the IMP conversion rate was calculated. Firstly, nuclease “AMANO” G (Amano Enzyme Inc., 0.1% w/w yeast solid) and “Deamizyme (50,000 units) (trade name of Amano Enzyme Inc., 0.01 to 0.04% w/w yeast solid)” that is an AMP deaminase agent derived from the test enzyme (Aspergillus melleus) or a crude enzyme solution prepared by using Streptomyces murinus were added to yeast lysate (YL-15, 0.2%) and they were reacted with yeast lysate under the conditions at a temperature of 70° C. and pH5 for a predetermined time (3 hours or 5 hours). Then, the reacted product was heat treated, and then subjected to HPLC analysis. Note here that added amount of AMP deaminase derived from Streptomyces murinus was set so that the activity value thereof became the same as that of “Deamizyme (50,000 u/mg product)” (trade name, Amano Enzyme Inc.)

Substrate specificity [2] = type: biochemical; conditions: activity with respect to 5′ AMP = 100%
From the text: It is reported that adenosine deaminase derived from Streptomyces aureofaciens has a wide range of substrate property, for example, catalytic ability of AMP (non-patent document 2). Taken this into consideration, in order to confirm whether deaminase derived from Streptomyces murinus obtained in the above-mentioned method is AMP-deaminase or adenosine-deaminase, the substrate specificity was investigated. Note here that the relative activity, when the enzyme activity with respect to 5′ AMP is defined as 100% is represented. […] In particular, the enzyme acted on 5′dAMP, ADP and ATP favorably. From the above-mentioned results, it was confirmed that the deaminase derived from Streptomyces murinus obtained by the above-mentioned method was AMP deaminase. Furthermore, it was determined that the enzyme was able to be employed preferably in a reaction using 5′dAMP, ADP and ATP as a substrate.
In order to determine whether the deaminase derived from transformant (SAD-1) obtained as mentioned above was AMP deaminase or Adenosine-deaminase, the substrate specificity was investigated. Note here that relative activities when the enzyme activity with respect to 5′ AMP was defined as 100% are represented. […] In particular, the enzyme acted on 5′-dAMP, ADP and ATP favorably. From the above-mentioned results, it was confirmed that deaminase derived from transformant (SAD-1) was similar to AMP deaminase derived from Streptomyces murinus and it was AMP deaminase. Furthermore, it was determined that the enzyme can be preferably used with respect to the reaction using 5′-dAMP, ADP and ATP as a substrate.

Substrate specificity [3] = type: biochemical
Substrate specificity [4] = type: biochemical; remark: listed apart in the source

B1: AMP deaminase derived from Streptomyces murinus: thermostable AMP deaminase enzyme produced by Streptomyces murinus IFO14802; amino acid sequence SEQ ID NO: 1 (protein, listed as Streptomyces murinus)
chain: APPPRQATAAEARTDAYLRSVKDRPAALRAFFRQLPKGGDLHNHLSGAVNTDYLIELAAEDGLCIDATMTAVPSPCGPGTRPAADARTDRAFHDAIVRAWSMQDFPPDENGHDHFFDTFGKFGEVTWRHRGKLLAQVADTVVANNQSYLETMVTPASDGAKQLADQVGWDADLTALHRKLAAGGKLDKLVADARKEADDGDAEFRATEHCGTAKARPACGLTVRWISQASRGSSPVRVFTQLDLGMRLAEADSRFVAVNLVQPEDWDSSLENYSLQMRMVGYLRTVYPKAHVTLHAGELWPGLVKPEALKFHIAEAVDIAHTQRVGHGVDLVHEDNWQRTARTMAARQIAVEVPFSSNAQILGVKGAEHPFTTYRRYGVPVVLATDDPGVSRIDISHEYQYAAATYGLGYPELKDLARASLQYAFLPGASLWQGNPTAQGYHPVAACRAERPGQPVHSAACRRLLDGSARARLEWRQEAAFAAFERAHARG
- IMP production [1]: IMP was produced
- action on substrate 2′AMP (Substrate specificity [2]): did not act on
- action on substrate 3′5′-cyclic AMP (cAMP) (Substrate specificity [2]): also acted on
- action on substrate 3′AMP (Substrate specificity [2]): also acted on
- action on substrate 5′ AMP (Substrate specificity [2]): most favorably
- action on substrate 5′dAMP (Substrate specificity [2]): favorably
- action on substrate ADP (Substrate specificity [2]): favorably
- action on substrate ATP (Substrate specificity [2]): favorably
- action on substrate adenine (Substrate specificity [2]): did not act on
- action on substrate 5′-GMP (Substrate specificity [3]): did not act on
- action on substrate 5′-UMP (Substrate specificity [4]): did not act on
